The record followed here is paper PMC6686231.

The target of series [1] is P34/P37 (trypanosome-specific proteins). The series can be described thus: co-IP; whole-cell extract of 10×-Ty-TbRrs1 T. brucei cells, beads with anti-P34/P37, anti-TbL5 or anti-TbRpf2 antibody, anti-Ty Western blot of pellet and supernatant; without RNase A. A general note: In western blotting, separated proteins are transferred to a membrane and probed.
Series [2] concerns the target TbL5 (T. brucei homologue of ribosomal protein L5), endogenous (T. brucei (endogenous in 10×-Ty-TbRrs1 cells)). The description is as above.
In series [3] the target is TbRpf2 (T. brucei homologue of Rpf2), endogenous (T. brucei (endogenous in 10×-Ty-TbRrs1 cells)). The description is as above.
The target of series [4] is P34/P37 (trypanosome-specific proteins). Nature of the series: co-IP; whole-cell extract of 10×-Ty-TbRrs1 T. brucei cells, beads with anti-P34/P37, anti-TbL5 or anti-TbRpf2 antibody, anti-Ty Western blot of pellet and supernatant; cellular RNA digested with RNase A.
Series [5] deals with TbL5 (T. brucei homologue of ribosomal protein L5), endogenous (T. brucei (endogenous in 10×-Ty-TbRrs1 cells)). Described as above.
Series [6] deals with TbRpf2 (T. brucei homologue of Rpf2), endogenous (T. brucei (endogenous in 10×-Ty-TbRrs1 cells)). The description is as above.
Series [7] concerns the target recombinant P34 (T. brucei). Nature of the series: co-IP; recombinant TbRrs1 incubated with recombinant P34, TbL5 or TbRpf2, precipitated with anti-P34, anti-L5 or anti-Rpf2 antibody, with or without in vitro-transcribed 5S rRNA; anti-His Western blot of pellet and supernatant.
In series [8] the target is recombinant TbL5 (T. brucei). The series is described as above.
The target of series [9] is recombinant TbRpf2 (T. brucei). The description is as above.
Series [10] deals with (His)6-TbRpf2 (Trypanosoma brucei). The series can be described thus: filter binding. As to conditions: without TbRrs1; text also cites ref 11; Filter binding with radiolabeled 5S rRNA, triplicate; buffer, salt, pH and temperature not given (as in ref 9).
The subject of series [11] is SUMO-TbRrs1 (Trypanosoma brucei). Nature of the series: filter binding. Conditions: Filter binding with radiolabeled 5S rRNA, triplicate; buffer, salt, pH and temperature not given (as in ref 9).
Series [12] deals with TbRpf2 (coexpressed, untagged);(His)6-TbRrs1 (coexpressed) (Trypanosoma brucei;Trypanosoma brucei). The series can be described thus: filter binding. As to conditions: coexpressed complex; Filter binding with radiolabeled 5S rRNA, triplicate; buffer, salt, pH and temperature not given (as in ref 9).

As for “10×-Ty-TbRrs1 (Trypanosoma brucei homologue of regulator of ribosome synthesis 1, Ty-tagged at one copy of the gene) (natural protein)”, the amount in the pellet relative to pellet plus supernatant stood at 0.06 in series [1]; 0.24 in series [2]; 0.02 in series [3]; 0.61 in series [4]; 0.63 in series [5]; 0.58 in series [6].
“SUMO-TbRrs1 (recombinant) (natural protein)”: the amount in the pellet relative to pellet plus supernatant, with 5S rRNA in series [7] is 0.71; in series [8], 0.74; in series [9], 0.65. Further, the amount in the pellet relative to pellet plus supernatant, without 5S rRNA in series [7] was 0.77; in [8] it was 0.78; in series [9], 0.53.
What is called Kd is the constant that tells how readily two partners part at equilibrium. Consider T. brucei 5S rRNA, for which the results for the Kd in [10], in series [11] and in [12] were 17 nM, 54.4 nM and 17.5 nM, respectively.
